Data on six molecules can be found in PMC10675840, “Structure-function analysis of ceTIR-1/hSARM1 explains the lack of Wallerian axonal degeneration in C. elegans” (Cell reports, 2023).

For one series, the target named is T1, ceTIR-1 (Caenorhabditis elegans, UniProt Q86DA5).
T1 construct: gene tir-1; near-intact ARM-SAM-SAM-TIR, residues 162-872 (HMD...QQR), N-terminal 6xHis + TEV site, HEK293F expression, mostly 9-mer ring, partly dissociated
T1 sequence (Q86DA5 216-926): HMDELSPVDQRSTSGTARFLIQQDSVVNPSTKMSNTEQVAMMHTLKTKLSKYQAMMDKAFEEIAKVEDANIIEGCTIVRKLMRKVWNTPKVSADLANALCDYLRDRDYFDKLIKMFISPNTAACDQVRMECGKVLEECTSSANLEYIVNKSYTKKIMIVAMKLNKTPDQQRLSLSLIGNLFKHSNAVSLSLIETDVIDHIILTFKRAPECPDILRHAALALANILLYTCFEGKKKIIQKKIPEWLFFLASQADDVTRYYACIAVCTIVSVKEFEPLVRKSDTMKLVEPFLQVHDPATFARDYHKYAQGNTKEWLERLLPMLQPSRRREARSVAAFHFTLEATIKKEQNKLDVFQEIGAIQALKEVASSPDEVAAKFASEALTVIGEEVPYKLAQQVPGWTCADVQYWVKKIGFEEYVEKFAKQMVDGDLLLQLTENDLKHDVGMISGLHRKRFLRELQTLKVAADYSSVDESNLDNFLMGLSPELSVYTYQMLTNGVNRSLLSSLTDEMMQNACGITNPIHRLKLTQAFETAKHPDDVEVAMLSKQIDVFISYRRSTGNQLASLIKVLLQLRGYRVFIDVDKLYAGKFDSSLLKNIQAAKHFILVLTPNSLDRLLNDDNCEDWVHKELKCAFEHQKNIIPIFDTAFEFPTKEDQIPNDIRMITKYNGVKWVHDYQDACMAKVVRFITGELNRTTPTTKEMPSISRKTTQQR
Description: HPLC NAD+ consumption, dose response. It is filed as biochemical. From the text: HPLC NAD+ consumption, dose response on ceTIR-1 | Nicotinamide (NAM) inhibits ceTIR-1 NADase activity

Series [1] deals with T2, hSARM1 ARM and SAM domains (residues 26-562), the human part of CHIMERA (human, UniProt Q6SZW1 26-562).
T2 construct: human SARM1 ARM and SAM domains, residues 26-562 (26ERL...DTP562); Stood joined on one chain with m8 (together they are CHIMERA); written apart only for the contact of the human ARM with the C. elegans TIR in the structure; also called human ARM and SAM domains; source: HEK293F, transfected, purified, as part of the CHIMERA chain
T2 sequence (looked up): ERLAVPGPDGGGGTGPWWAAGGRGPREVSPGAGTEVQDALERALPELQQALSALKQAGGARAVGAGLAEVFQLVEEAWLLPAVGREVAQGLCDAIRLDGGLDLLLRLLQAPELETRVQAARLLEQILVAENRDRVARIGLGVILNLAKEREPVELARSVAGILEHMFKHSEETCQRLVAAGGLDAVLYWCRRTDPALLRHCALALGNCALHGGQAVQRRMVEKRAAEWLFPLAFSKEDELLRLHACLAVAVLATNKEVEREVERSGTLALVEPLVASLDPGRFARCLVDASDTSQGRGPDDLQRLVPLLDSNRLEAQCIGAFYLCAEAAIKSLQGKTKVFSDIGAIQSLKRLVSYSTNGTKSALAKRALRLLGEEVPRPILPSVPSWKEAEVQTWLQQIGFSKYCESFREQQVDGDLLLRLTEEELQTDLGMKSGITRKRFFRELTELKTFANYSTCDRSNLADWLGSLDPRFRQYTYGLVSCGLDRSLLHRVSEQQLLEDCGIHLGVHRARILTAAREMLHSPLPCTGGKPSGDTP
The series is described as follows: cryo-EM structure; purified CHIMERA supplemented with 5 mM NAD+; Titan Krios; 136,346 particles, C8 symmetry imposed. Particulars: both partners purified.

Series [2] deals with the molecule itself. Description: cross-linking; glutaraldehyde cross-linking of ceTIR-1^TIR and ceTIR-1^(TIR L729H).
Series [3] concerns the molecule itself. The series is described as follows: cryo-EM structure; purified CHIMERA supplemented with 5 mM NAD+; Titan Krios; 136,346 particles, C8 symmetry imposed.
Substrate in series [4]: NC(=O)c1ccc[n+]([C@@H]2O[C@H](COP(=O)(O)OP(=O)(O)OC[C@H]3O[C@@H](n4cnc5c(N)ncnc54)[C@H](O)[C@@H]3O)[C@@H](O)[C@H]2O)c1
Description: HPLC NAD+ consumption, Michaelis-Menten fit. It is filed as biochemical, Caenorhabditis elegans. Particulars: […] min, […] enzyme, pH […], unit appears as mM, a character error for µM (b50 gives about […] for hSARM1 and […] higher for ceTIR-1).

Series [5] concerns the molecule itself. Description: SEC; gel filtration of Ni-NTA purified hSARM1 and ceTIR-1, fractions read by anti-FLAG WB; Superdex 200 Increase 10/300, 25 mM phosphate pH 8.5, 120 mM NaCl, 2.5% glycerol, 1 mM DTT.

By IC50 is commonly meant the concentration at which inhibition is half-maximal. High values mean lower potency, low ones higher potency. For the molecule `NC(=O)c1cccnc1` [NAM], it took 910 µM to reach half-maximal inhibition against ceTIR-1 (IC50).

B1: ceTIR-1 TIR domain (residues 709-872), the C. elegans part of CHIMERA (domain or fragment, UniProt Q86DA5-2 709-872, looked up)
chain: DVFISYRRSTGNQLASLIKVLLQLRGYRVFIDVDKLYAGKFDSSLLKNIQAAKHFILVLTPNSLDRLLNDDNCEDWVHKELKCAFEHQKNIIPIFDTAFEFPTKEDQIPNDIRMITKYNGVKWVHDYQDACMAKVVRFITGELNRTTPTTKEMPSISRKTTQQR
notes: ceTIR-1 TIR domain, residues 709-872 (709DVF...QQR872); Stood joined on one chain with m7 (together they are CHIMERA); also called C. elegans TIR; source: HEK293F, transfected, purified, as part of the CHIMERA chain
As to B1, in series [1], the binding result is “binds”.

B2: ceTIR-1^TIR (residues 703-872) (domain or fragment, C. elegans, UniProt Q86DA5-2 703-872, looked up)
chain: MLSKQIDVFISYRRSTGNQLASLIKVLLQLRGYRVFIDVDKLYAGKFDSSLLKNIQAAKHFILVLTPNSLDRLLNDDNCEDWVHKELKCAFEHQKNIIPIFDTAFEFPTKEDQIPNDIRMITKYNGVKWVHDYQDACMAKVVRFITGELNRTTPTTKEMPSISRKTTQQR
notes: ceTIR-1 TIR domain, residues 703-872 (703MLS...QQR872); Dimeric by glutaraldehyde cross-linking; also called isolated TIR domain of ceTIR-1; source: E. coli T7 Express, purified (HisTrap, TEV, second HisTrap, Superdex SEC); not shown: His tag, N-terminal, cleaved
One may read the stoichiometry N as a count of units in the complex or per binding partner. As for B2, in series [2], the “stoichiometry N” value amounted to 2.

B3: CHIMERA (hSARM1 26-562 fused to ceTIR-1 709-872) (enzyme, human | C. elegans, UniProt Q6SZW1 26-562, looked up)
chain: ERLAVPGPDGGGGTGPWWAAGGRGPREVSPGAGTEVQDALERALPELQQALSALKQAGGARAVGAGLAEVFQLVEEAWLLPAVGREVAQGLCDAIRLDGGLDLLLRLLQAPELETRVQAARLLEQILVAENRDRVARIGLGVILNLAKEREPVELARSVAGILEHMFKHSEETCQRLVAAGGLDAVLYWCRRTDPALLRHCALALGNCALHGGQAVQRRMVEKRAAEWLFPLAFSKEDELLRLHACLAVAVLATNKEVEREVERSGTLALVEPLVASLDPGRFARCLVDASDTSQGRGPDDLQRLVPLLDSNRLEAQCIGAFYLCAEAAIKSLQGKTKVFSDIGAIQSLKRLVSYSTNGTKSALAKRALRLLGEEVPRPILPSVPSWKEAEVQTWLQQIGFSKYCESFREQQVDGDLLLRLTEEELQTDLGMKSGITRKRFFRELTELKTFANYSTCDRSNLADWLGSLDPRFRQYTYGLVSCGLDRSLLHRVSEQQLLEDCGIHLGVHRARILTAAREMLHSPLPCTGGKPSGDTPDVFISYRRSTGNQLASLIKVLLQLRGYRVFIDVDKLYAGKFDSSLLKNIQAAKHFILVLTPNSLDRLLNDDNCEDWVHKELKCAFEHQKNIIPIFDTAFEFPTKEDQIPNDIRMITKYNGVKWVHDYQDACMAKVVRFITGELNRTTPTTKEMPSISRKTTQQR
notes: human SARM1 ARM and SAM domains, residues 26-562 (26ERL...DTP562); ceTIR-1 TIR domain, residues 709-872 (709DVF...QQR872); Octamer by cryo-EM, sample supplemented with 5 mM NAD+; also called hARM-SAM-ceTIR CHIMERA; Chimera construct; source: HEK293F, transfected, purified (Ni-chelate, Superdex 200 Increase SEC)
B3: the “stoichiometry N” value in series [3] is 8.

B4: ceTIR-1 (Caenorhabditis elegans) (protein)
chain: T1 sequence (Q86DA5 216-926)
notes: near-intact ARM-SAM-SAM-TIR, residues 162-872 (HMD...QQR), N-terminal 6xHis + TEV site, HEK293F expression, mostly 9-mer ring, partly dissociated
Broadly, the Km is the substrate concentration at which the rate is half of its maximum. For B4, in series [4], the Km is 0.25 mM.

B5: hSARM1 (near-intact, residues 26-724) (enzyme, human, UniProt Q6SZW1 26-724, looked up)
chain: ERLAVPGPDGGGGTGPWWAAGGRGPREVSPGAGTEVQDALERALPELQQALSALKQAGGARAVGAGLAEVFQLVEEAWLLPAVGREVAQGLCDAIRLDGGLDLLLRLLQAPELETRVQAARLLEQILVAENRDRVARIGLGVILNLAKEREPVELARSVAGILEHMFKHSEETCQRLVAAGGLDAVLYWCRRTDPALLRHCALALGNCALHGGQAVQRRMVEKRAAEWLFPLAFSKEDELLRLHACLAVAVLATNKEVEREVERSGTLALVEPLVASLDPGRFARCLVDASDTSQGRGPDDLQRLVPLLDSNRLEAQCIGAFYLCAEAAIKSLQGKTKVFSDIGAIQSLKRLVSYSTNGTKSALAKRALRLLGEEVPRPILPSVPSWKEAEVQTWLQQIGFSKYCESFREQQVDGDLLLRLTEEELQTDLGMKSGITRKRFFRELTELKTFANYSTCDRSNLADWLGSLDPRFRQYTYGLVSCGLDRSLLHRVSEQQLLEDCGIHLGVHRARILTAAREMLHSPLPCTGGKPSGDTPDVFISYRRNSGSQLASLLKVHLQLHGFSVFIDVEKLEAGKFEDKLIQSVMGARNFVLVLSPGALDKCMQDHDCKDWVHKEIVTALSCGKNIVPIIDGFEWPEPQVLPEDMQAVLTFNGIKWSHEYQEATIEKIIRFLQGRSSRDSSAGSDTSLEGAAPMGPT
notes: human SARM1 (sterile alpha and TIR motif containing 1), residues 26-724 (26ERL...GPT724); A TEV site follows the His tag; no cleavage is described; also called human SARM1; source: HEK293F, transfected, purified (Ni-chelate, Superdex 200 Increase SEC)
For B5, in series [5], the binding result is “binds”.
